Here are results for three molecules from article PMC9489729, “The AAA+ ATPase RavA and its binding partner ViaA modulate E. coli aminoglycoside sensitivity through interaction with the inner membrane” (Nature Communications, 2022).

In data set [1] the target is T1, C-terminally His-tagged RavA (E. coli, UniProt P31473 1-498).
T1 construct: RavA, MoxR AAA+ ATPase, E. coli K-12 MG1655; It cites earlier work for RavA being a hexamer with ADP or ATP and partly monomeric without nucleotide; also called apo-RavA; not shown: His tag, C-terminal, kept
T1 sequence (P31473 whole entry): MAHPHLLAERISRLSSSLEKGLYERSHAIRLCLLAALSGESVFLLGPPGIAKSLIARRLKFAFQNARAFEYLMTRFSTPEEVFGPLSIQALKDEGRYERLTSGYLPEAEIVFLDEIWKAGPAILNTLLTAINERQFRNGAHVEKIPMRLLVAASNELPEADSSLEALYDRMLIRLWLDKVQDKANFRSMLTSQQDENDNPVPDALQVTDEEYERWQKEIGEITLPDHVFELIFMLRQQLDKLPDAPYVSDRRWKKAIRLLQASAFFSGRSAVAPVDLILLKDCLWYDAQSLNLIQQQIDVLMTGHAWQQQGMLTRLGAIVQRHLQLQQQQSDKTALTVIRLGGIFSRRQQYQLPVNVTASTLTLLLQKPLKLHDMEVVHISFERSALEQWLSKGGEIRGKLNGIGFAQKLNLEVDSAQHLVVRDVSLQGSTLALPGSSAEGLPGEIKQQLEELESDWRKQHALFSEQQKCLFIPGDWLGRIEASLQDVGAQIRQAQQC
Nature of the data set: BLI; biotinylated ViaA construct immobilised on streptavidin biosensors, RavA in solution with 1 mM ADP (pre-incubated 10 min); HBS kinetics buffer, 293 K; 1:1 model. Conditions: both partners purified. For orientation: BLI is a label-free optical method that tracks binding on a fibre tip over time.

Data set [2] concerns the target T1, C-terminally His-tagged RavA. Nature of the data set: BLI; biotinylated ViaA construct immobilised on streptavidin biosensors, ligand in solution, no nucleotide added; HBS kinetics buffer (25 mM HEPES pH 7.5, 300 mM NaCl, 10 mM MgCl2, 10 % glycerol, 0.1% BSA, 0.02% Tween-20), 293 K, Octet RED96; 1:1 model. Conditions: both partners purified.
Data set [3] deals with the molecule itself. Description: SEC-MALS; Superdex 200 increase 10/300 GL, 4 °C, 25 mM HEPES pH 7.5, 300 mM NaCl, 10 mM MgCl2, 10 % glycerol; AviTag-ViaA-His 80 µL at 3 mg/mL, His-NTV-AviTag 80 µL at 2 mg/mL.
Data set [4] deals with the molecule itself. Description: SAXS; AviTag-ViaA-His at 3 mg/mL, 25 mM HEPES pH 7.5, 300 mM NaCl, 10 mM MgCl2, 10 % glycerol, 20 °C; MW by SAXSMoW and ScÅtter.
The target in data set [5] is T1, C-terminally His-tagged RavA. Description: BLI; Supplementary Fig. 1: biotinylated His-NTV-AviTag or ViaA immobilised on streptavidin biosensors, RavA or RavAΔLARA in solution; HBS kinetics buffer, 293 K; the methods say 1 mM ADP was added with RavA or RavAΔLARA. The conditions noted are these: both partners purified.

B1: His-ViaA-AviTag (natural protein, E. coli, UniProt P0ADN0 1-483, looked up)
chain: MLTLDTLNVMLAVSEEGLIEEMIIALLASPQLAVFFEKFPRLKAAITDDVPRWREALRSRLKDARVPPELTEEVMCYQQSQLLSTPQFIVQLPQILDLLHRLNSPWAEQARQLVDANSTITSALHTLFLQRWRLSLIVQATTLNQQLLEEEREQLLSEVQERMTLSGQLEPILADNNTAAGRLWDMSAGQLKRGDYQLIVKYGEFLNEQPELKRLAEQLGRSREAKSIPRNDAQMETFRTMVREPATVPEQVDGLQQSDDILRLLPPELATLGITELEYEFYRRLVEKQLLTYRLHGESWREKVIERPVVHKDYDEQPRGPFIVCVDTSGSMGGFNEQCAKAFCLALMRIALAENRRCYIMLFSTEIVRYELSGPQGIEQAIRFLSQQFRGGTDLASCFRAIMERLQSREWFDADAVVISDFIAQRLPDDVTSKVKELQRVHQHRFHAVAMSAHGKPGIMRIFDHIWRFDTGMRSRLLRRWRR
modifications: biotinylated for the BLI binding studies (50 μM D-biotin added to the LB medium during expression)
notes: ViaA, E. coli, residues 1-483, cloned in the p11-Toronto1 vector; also called C-terminally AviTagged ViaA; source: E. coli BL21 (DE3), purified (NiNTA IMAC, desalting, SEC); not shown: His6, N-terminal, kept
For orientation: Kd means the concentration at which binding is half-saturated. A low value points to higher affinity. For the molecule B1, the Kd is approximately 2.2 µM in data set [1] and 11 µM in data set [2].

B2: AviTag-ViaA-His (natural protein, E. coli, UniProt P0ADN0 1-483, looked up)
chain: MLTLDTLNVMLAVSEEGLIEEMIIALLASPQLAVFFEKFPRLKAAITDDVPRWREALRSRLKDARVPPELTEEVMCYQQSQLLSTPQFIVQLPQILDLLHRLNSPWAEQARQLVDANSTITSALHTLFLQRWRLSLIVQATTLNQQLLEEEREQLLSEVQERMTLSGQLEPILADNNTAAGRLWDMSAGQLKRGDYQLIVKYGEFLNEQPELKRLAEQLGRSREAKSIPRNDAQMETFRTMVREPATVPEQVDGLQQSDDILRLLPPELATLGITELEYEFYRRLVEKQLLTYRLHGESWREKVIERPVVHKDYDEQPRGPFIVCVDTSGSMGGFNEQCAKAFCLALMRIALAENRRCYIMLFSTEIVRYELSGPQGIEQAIRFLSQQFRGGTDLASCFRAIMERLQSREWFDADAVVISDFIAQRLPDDVTSKVKELQRVHQHRFHAVAMSAHGKPGIMRIFDHIWRFDTGMRSRLLRRWRR
modifications: biotinylated for the BLI binding studies (50 μM D-biotin added to the LB medium during expression)
notes: ViaA, E. coli K-12 MG1655, VWA domain protein, residues 1-483 (NTV 1-319, CTV/VWA domain 320-483), cloned in pET22b; Dimer by SEC-MALLS and SAXS; Theoretical MW of the construct is 60.4 kDa; also called AVI-ViaA-HIS; N-terminally AviTagged ViaA; source: E. coli BL21 (DE3), purified (NiNTA IMAC, desalting, SEC); not shown: AviTag, N-terminal, kept; His tag, C-terminal, kept
Broadly, the stoichiometry N is the number of molecules, sites or subunits per partner or assembly. Regarding B2, the “stoichiometry N” value is approximately 2 in data set [3] and 2 in data set [4]. The Kd was approximately 2.2 µM in data set [1] and 18.9 µM in data set [2].

B3: His-NTV-AviTag (domain or fragment, E. coli, UniProt P0ADN0 1-319, looked up)
chain: MLTLDTLNVMLAVSEEGLIEEMIIALLASPQLAVFFEKFPRLKAAITDDVPRWREALRSRLKDARVPPELTEEVMCYQQSQLLSTPQFIVQLPQILDLLHRLNSPWAEQARQLVDANSTITSALHTLFLQRWRLSLIVQATTLNQQLLEEEREQLLSEVQERMTLSGQLEPILADNNTAAGRLWDMSAGQLKRGDYQLIVKYGEFLNEQPELKRLAEQLGRSREAKSIPRNDAQMETFRTMVREPATVPEQVDGLQQSDDILRLLPPELATLGITELEYEFYRRLVEKQLLTYRLHGESWREKVIERPVVHKDYDEQPR
modifications: biotinylated for the BLI binding studies (50 μM D-biotin added to the LB medium during expression)
notes: ViaA, E. coli, N-terminal domain (NTV), residues 1-319; also called N-Terminal domain of ViaA; source: E. coli, expressed and purified as the ViaA constructs (NiNTA IMAC, desalting, SEC)
As to B3, in data set [5], the binding result is recorded as “binds”.
